Source: article PMC12309361
Read-outs that look alike come from different tables or passages of the source.

How the values were obtained:
[1] = biological target: WT PolC CBM peptide (QLSLF) with flanking amino acids from PolC, fluorescein-labelled (B. subtilis); experiment: fluorescence polarisation; direct binding: B. subtilis DnaN in 3-fold serial dilution from 50 μM, 20 nM fluorescein-labelled peptide; 20 mM Tris-HCl pH 7.5, 100 mM NaCl, 5 mM BME, 10% glycerol, 0.1% pluronic acid F-68; fit to a 1:1 binding model
[2] = biological target: PolC CBM sequence (QLSLF) peptide with the flanking amino acids from DnaE, fluorescein-labelled (B. subtilis); experiment: as above
[3] = biological target: WT PolC CBM peptide (QLSLF) with flanking amino acids from PolC, fluorescein-labelled (B. subtilis); experiment: as above; remark: listed apart in the source
[4] = biological target: Pol III alpha CBM (Escherichia coli); conditions: cited from earlier work

Substance	Kd [1]	Kd [2]	Kd [3]	Kd [4]
B. subtilis DnaN (sliding clamp), N-terminally His6-tagged (from UniProt P05649 1-378) (natural protein)	3.9 µM	7.2 µM	3.8 µM	
DnaN clamp (from UniProt P0A988)				0.8 µM
